# Results published in paper PMC6695498 (2019).
# B1: Arkadia SUMO-binding domain (protein)
# chain: VLARRKYALLPSSSSSSENDLSSESSSSSSTEGEEDLFVSASENHQNNPAVPSGSIDEDVVVIEASSTPQVTANEEINVTSTDSEVEIVTVGESYRSRSTLGHSRSHWSQGSSSHASRPQEPRNRSRISTVIQPLRQNAAEVVDLTVDEDEPTVVPTTSARMES
# Key:
# [1] = biological target: SUMO1-capped SUMO2 chain (linear dimer/trimer) (Homo sapiens, UniProt P63165); assay: ITC
# [2] = biological target: SUMO2 chain (linear dimer/trimer) (Homo sapiens, UniProt P61956); assay: ITC
# Chain of SUMO2 chain (linear dimer/trimer) (P61956 1-93): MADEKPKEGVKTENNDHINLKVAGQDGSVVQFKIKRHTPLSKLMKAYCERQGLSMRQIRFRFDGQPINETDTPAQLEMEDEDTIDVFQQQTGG
# Chain of SUMO1-capped SUMO2 chain (linear dimer/trimer) (P63165 2-97, chain 1 of 2): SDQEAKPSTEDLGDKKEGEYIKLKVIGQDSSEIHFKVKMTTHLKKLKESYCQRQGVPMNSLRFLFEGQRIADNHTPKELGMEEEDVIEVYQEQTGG
# Chain of SUMO1-capped SUMO2 chain (linear dimer/trimer) (chain, as listed by the source, chain 2 of 2): as the sequence (P61956 1-93) above
binder,measurement,setting,value
B1,Kd,[1],~2.5 µM
same,Kd,[2],~13.5 µM
